{
  "source": "paper PMC4155411",
  "origin": "cited, not measured here",
  "target": "HPr (Escherichia coli) (UniProt P0AA04)",
  "experiment": "PRE NMR titration",
  "data": [
    {"substance": "Enzyme I N-terminal domain (EIN) N-terminal domain (from UniProt P08839)", "values": [
      {"measurement": "Kd", "result": 7, "unit": "µM"}
    ]}
  ]
}
